From article PMC13105642

Target: Antibody_82-M1
Experiment: SPR; Biacore 8K; antibody captured on a Protein G chip; gradient concentrations of LONP1 as analyte; 1x HBS-EP buffer; fitted to a 1:1 binding model

Sequence of Antibody_82-M1 (heavy, as listed by the source, chain 1 of 2): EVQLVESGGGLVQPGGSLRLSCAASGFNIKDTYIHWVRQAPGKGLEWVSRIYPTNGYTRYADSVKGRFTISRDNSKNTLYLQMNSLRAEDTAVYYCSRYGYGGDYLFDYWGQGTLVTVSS
Sequence of Antibody_82-M1 (light, as listed by the source, chain 2 of 2): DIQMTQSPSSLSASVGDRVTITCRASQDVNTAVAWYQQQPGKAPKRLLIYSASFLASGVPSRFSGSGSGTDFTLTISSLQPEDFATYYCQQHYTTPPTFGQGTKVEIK

- Kd: 0.829 nM
- koff: 0.000151 s⁻¹
- kon: 182000 M⁻¹ s⁻¹
B1: Lon Peptidase 1 (LONP1) (enzyme)
chain: FWEASSRGGGAFSGGEDASEGGAEEGAGGAGGSAGAGEGPVITALTPMTIPDVFPHLPLIAITRNPVFPRFIKIIEVKNKKLVELLRRKVRLAQPYVGVFLKRDDSNESDVVESLDEIYHTGTFAQIHEMQDLGDKLRMIVMGHRRVHISRQLEVEPEEPEAENKHKPRRKSKRGKKEAEDELSARHPAELAMEPTPELPAEVLMVEVENVVHEDFQVTEEVKALTAEIVKTIRDIIALNPLYRESVLQMMQAGQRVVDNPIYLSDMGAALTGAESHELQDVLEETNIPKRLYKALSLLKKEFELSKLQQRLGREVEEKIKQTHRKYLLQEQLKIIKKELGLEKDDKDAIEEKFRERLKELVVPKHVMDVVDEELSKLGLLDNHSSEFNVTRNYLDWLTSIPWGKYSNENLDLARAQAVLEEDHYGMEDVKKRILEFIAVSQLRGSTQGKILCFYGPPGVGKTSIARSIARALNREYFRFSVGGMTDVAEIKGHRRTYVGAMPGKIIQCLKKTKTENPLILIDEVDKIGRGYQGDPSSALLELLDPEQNANFLDHYLDVPVDLSKVLFICTANVTDTIPEPLRDRMEMINVSGYVAQEKLAIAERYLVPQARALCGLDESKAKLSSDVLTLLIKQYCRESGVRNLQKQVEKVLRKSAYKIVSGEAESVEVTPENLQDFVGKPVFTVERMYDVTPPGVVMGLAWTAMGGSTLFVETSLRRPQDKDAKGDKDGSLEVTGQLGEVMKESARIAYTFARAFLMQHAPANDYLVTSHIHLHVPEGATPKDGPSAGCTIVTALLSLAMGRPVRQNLAMTGEVSLTGKILPVGGIKEKTIAAKRAGVTCIVLPAENKKDFYDLAAFITEGLEVHFVEHYREIFDIAFPDEQAEALAVER
